Results taken from the nanobody polyreactivity screen of Harvey et al. (2022).

Assay: yeast display, Sf9 membrane polyspecificity reagent, FACS + sequencing; frameworks hold sequencing errors
Procedure, shortened: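 Galactose-induced (36–48 hours) yeast carrying a synthetic nanobody display library were exposed to 10% biotinylated, detergent-solubilized Sf9 membrane reagent at 4 °C for 1 hour. FACS followed streptavidin microbead enrichment, using low and high (top ~1%) gates for expression (anti-HA) and reagent binding (streptavidin). Colony PCR, MiSeq 2 × 250 sequencing and CDR-length filtering followed. Labels for polyreactivity reflect the gate of origin.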

Row | Sequence | polyreactivity (PSR sort gate)
1 | QVQVVESGGGLVQAGGSLRLSCAASGSIFGGYTMGWYRQAHGNERELVAGITISGGSTYYADSVKGRFTISRDTAKNTVYLQMNSLKPEDTAVYYCAAVSFVVSSWGYGYWGQGTQVTVSS | low polyreactivity
2 | QVQVVESGGGLVQAGGSLRLSCAASGSIFHAYTMGWSRQAPGKERELVAAISRGDRTYYADSVKGRFTISRDNAKNTVSLQMNSLKPEDTAVYYCNRDRYRYDSWGQGTQLTVSS | high polyreactivity
3 | QVQVVESGGGLVQAGGSLRLSCAASGSIFNQYAMGWHRQAPGKERELVAAISSDGGRTYYADSVKGRFTISRDNAKNTVYLQMNSLKPEDTAVYYCNADFPAYGLQGDDYWGQGTQVTVSS | low polyreactivity
4 | QVQVVESGGGLVQAGGSLRLSCAASGSIIYYYAMGWYRQAPGKERELVARISWNGGSTYYADSVKGRFTISRDNAKNTVYLQMNSLKPEDNAVYYCAARPWHHYYWGQGTQVTVSS | high polyreactivity
5 | QVQVVESGGGLVQAGGSLRLSCAASGSTFSIYAMGCYRQAPGKERELVAAISSSGGSTYYADSVKGRFTISRDNGKNTVYLQMNSLKPEDTAVYYCNKRKYHVRYDYWGQGTQVTVSS | low polyreactivity
6 | QVQVVESGGGLVQAGGSLRLSCAASGSTFVLNAMGWYRQAPGKERELVAAITYGGSTYYADSVKGRFTISRDNAKNTVYLQMNSLKPEDTAVYYCAVTYNGDSSWPGDYWGQGTQVTVSS | low polyreactivity
7 | QVQVVESGGGLVQAGGSLRLSCAASGSTFWWYAMGWYRQAPGKERELVAAITSGGSTNYADSVKGRFTISRDNAKNTVYLQMNSLKPEVTAFYYCAKVPRPLVYYIRLGYWGQGTQVTVSS | high polyreactivity
8 | QVQVVESGGGLVQAGGSLRLSCAASGWYNAMGWYRQAPGKERELVAAISWDGDSTYYADSVKGRFTISRENAKNTVYLQMNSLKPEDTAVYYCAATQSTGRGRYYYWGKGTQVTVSS | high polyreactivity
9 | QVQVVESGGGLVQAGGSLRLSCASSGRTFGIYAMGWYRPAPGKESEWVASISWSGGRTYYADSVKGRFTISRDNAKNTVYLVMISLKPEDTAVYFCAARWYYVTPLRRYGYWGQGTQVTVSS | high polyreactivity
10 | QVQVVESGGGLVQAGGSLRVICAASGSTFYRNAMGWYRQAPGKEWELVAAITRSASSTYYADSVKGRFTISRDNAKNNVDLQLNSLKPEDTAVYYCAAKRRVSHLDYWGQGTQVNVSS | high polyreactivity
11 | QVQVVESGGGLVQPGCSLRLSCAASGNIFVYNDMGWYRQAPGKERELVAAIDSGGSTYYADSVKGRFTISRDNAKNNVYLKMNSLKQEDTAVYYCAADYYCTYRTIYYYWGQGTQVTVSS | low polyreactivity
12 | QVQVVESGVGLVQSGGSLRLSYAASGSIFIPYPMGWYRQAPGKERELVAAISSSGSTYYADSVKGRFTISRDNAKNTFYLQMNSLKPEDTAVYYCAAERHYSYSSYDDWGQGTQVTVSS | low polyreactivity
13 | QVRLVESGGGLVQAGGSLRLRCAASGSTFYTYAMGRYRQAPGKERELVAAITFIDGSTYYADSVKGRFTISRDNANNTVYLQMNSLKPEDTAVYYCAAASRGWGYPLYYSTDEYWGHGTQVTVSS | low polyreactivity
14 | QVRLVESGGGLVQAGGSLRLSCAASGRIFASYAMGWNRQAPGKETELVAAISKSGGRTYYADSVKGGFTISRDNAKNTVYLQMNSLKPEDTAVYYCAAYFWTRSGTPNYDYWGQGTQVTVSS | high polyreactivity
15 | QVRLVESGGGLVQAGGSLRLSCAASGSIFAPYAMGWYRQAPGKERELVATIRTTGDSTYYADSVKGRFTISRDNAKNTVYLQMNSLKPEDTAVYYCAKSEPLVVGVSPWYQVDYCGQGTQVTVSS | low polyreactivity
16 | QVRLVESGGGLVQAGGSLRLSCAASGSILDINAMGWYRQAPGKERELVASISWTGGHTYYADSVKGRFTISRDNAKNTVYLQMNSLKPEDTAVYDCAATHQETVYYFLSIFDYWGQGTQVTVSS | low polyreactivity
17 | QVRLVESGGGLVQAGGSLRLSCAASGSILYRYTMGWYRQAPGKETELVAAITWSDGSTYYSDSVKGRFTISRDNAKNTVYLQKNSLKPEDTAVYDCAADLWLDVDHEWSGGDYWGQGTQVTVSS | low polyreactivity
18 | QVRLVETGGGLVQAGGSLRLSCAASGSIFLIYDMGWYRQAPGKEMELVAAISNSVGSTYADSVKGRFTMSRDNAKNTVYLQMNSLKPEDTAVYYCNADYGPIDGRGGYWGQGTQVTVSS | low polyreactivity
19 | QVRRVESGGGLVQAGGSLRLSCAASGSTFPWYAMGWYRQAPGTERELVASITSGTTTNYADSVKGRFTISRDNAKNTVYLEMNSLKPEDTAVYYCAASWVYPYDYWGQGTQVTVSS | low polyreactivity
20 | QYQLVESVGGLDQAGGTLRLSCAASARIFSYYAMGWYRQAPGKERELVATISYSGGSTYYADSVKGRFTISRDKAKNTVYLQMNSLKPEDSAVYYCAATRYPYFSFVRFPSRRFNYWGQGTQVTVSS | high polyreactivity
21 | RLVQAGGSLRLSCAASGRIFGTYAMGWYRQAPGKERELVAAITQSGGRTYYADSVKGRFTISRDNAKNSVYLQMNSLKPEDTAVYYCNKVTYRGIGLGYDYWGQGTQVTVSS | high polyreactivity
22 | RVQLGESGGGLVQAGGSLRLSCAASGRTFVRYAMGWYRQAPGKERELVAAISYRGASTFYADSVKGRFTISRDNAKNTVYLQMNSLNPEDTAVYSCATDPRIRYQGNPYDYWGQGTQVTVSS | high polyreactivity
23 | RVQLVESGGGLVQAGGRLRLSCAASRFTFIVNPMGWYRQAPGKERELVAAISWNGGSTYYADSVKGRFTISRDNAKNTVYLQMNSLKPEDTAVYYCAVLYRSEYDWGQGTQVTVSS | low polyreactivity
24 | RVQLVESGGGLVQAGGSLRLSCAASGGTFPVYAMGWYRQAPGKEWELVAAISYSGVTTYYADSVKGRFTISRDNAKNTVYLQMNSLKPEDTAVYYCNADWRRWYIFSYDYWGQGTQVTVSS | low polyreactivity
25 | RVQLVESGGGLVQAGGSLRLSCAASGITFGRNAMGWYRQAPGKERELVAAISRGGSTNYADSVKGRFTISRDNAKNTVYLQMNSLKPEDTAVYYCNARSFGPTESRYDYWGQGTQVTVSS | high polyreactivity
26 | RVQLVESGGGLVQAGGSLRLSCAASGSTISRYAMGWYRQAPGKERELVASISRSGTSTYYADSVKGRFTISRDNAKNTVYLQMNSLKPEDTAVYYCNKRWATSIQYRYNYWGQGTQVTVSS | high polyreactivity
27 | TYRGTTTYYADSVKGRFPIARDYAKNTVYLQMHSLKPEETAVYNWTRYYPSEYDYWGQGTHVTVSS | high polyreactivity
